Experimental data as given in patent US20140120555A1.

What was measured:
[1] = target: human CXCR4 (Chemokine receptor 4) (human) (UniProt P61073); test: FACS on Hela cervix cancer cells (endogenous CXCR4), 10 µg/ml antibody
[2] = target: human CXCR4 (Chemokine receptor 4) (human) (UniProt P61073); test: FACS on MDA-MB-231 breast cancer cells (endogenous CXCR4), 10 µg/ml antibody
[3] = target: human CXCR4 (Chemokine receptor 4) (human) (UniProt P61073); test: FACS on NIH3T3-CXCR4 transfected cells, 10 µg/ml antibody
[4] = target: human CXCR4 (Chemokine receptor 4) (human) (UniProt P61073); test: FACS on U937 promyelocytic cancer cells (endogenous CXCR4), 10 µg/ml antibody

human CXCR4 (Chemokine receptor 4) (human), sequence (P61073 whole entry): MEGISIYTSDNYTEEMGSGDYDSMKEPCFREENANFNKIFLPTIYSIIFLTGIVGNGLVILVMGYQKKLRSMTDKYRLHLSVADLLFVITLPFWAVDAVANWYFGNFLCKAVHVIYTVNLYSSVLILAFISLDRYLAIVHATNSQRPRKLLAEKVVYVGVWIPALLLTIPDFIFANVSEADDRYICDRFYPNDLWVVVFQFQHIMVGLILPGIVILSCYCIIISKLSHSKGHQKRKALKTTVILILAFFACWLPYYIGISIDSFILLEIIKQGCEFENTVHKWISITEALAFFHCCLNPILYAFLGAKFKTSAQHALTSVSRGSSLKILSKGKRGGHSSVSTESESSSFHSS

B1: murine monoclonal antibody 515H7 (hybridoma CNCM I-4019) (antibody, V domains shown)
VH: EVNLVESGGGLVQPGGSLRLSCATSGFTFTDNYMSWVRQPPGKALEWLGFIRNKANGYTTDYSASVRGRFTISRDNSQSILYLQMNALRAEDSATYYCARDVGSNYFDYWGQGTTLTVSS
VL: DIVMSQSPSSLAVSAGEKVTMSCKSSQSLFNSRTRKNYLAWYQQKPGQSPKLLIYWASARDSGVPARFTGSGSETYFTLTISRVQAEDLAVYYCMQSFNLRTFGGGTKLEIK
modifications: Biotinylated when used as tracer in the competition assay of Example 3 (site not stated); unlabelled in Example 2.
MFI [1]: 1850 MFI
MFI [2]: 239 MFI
MFI [3]: 2750 MFI
MFI [4]: 645 MFI
